Molecular target: GST-Rev3 (S. cerevisiae) (UniProt P14284)
Test: affinity co-purification of the polymerase from yeast

Sequence of UniProt P14284 (P14284 whole entry): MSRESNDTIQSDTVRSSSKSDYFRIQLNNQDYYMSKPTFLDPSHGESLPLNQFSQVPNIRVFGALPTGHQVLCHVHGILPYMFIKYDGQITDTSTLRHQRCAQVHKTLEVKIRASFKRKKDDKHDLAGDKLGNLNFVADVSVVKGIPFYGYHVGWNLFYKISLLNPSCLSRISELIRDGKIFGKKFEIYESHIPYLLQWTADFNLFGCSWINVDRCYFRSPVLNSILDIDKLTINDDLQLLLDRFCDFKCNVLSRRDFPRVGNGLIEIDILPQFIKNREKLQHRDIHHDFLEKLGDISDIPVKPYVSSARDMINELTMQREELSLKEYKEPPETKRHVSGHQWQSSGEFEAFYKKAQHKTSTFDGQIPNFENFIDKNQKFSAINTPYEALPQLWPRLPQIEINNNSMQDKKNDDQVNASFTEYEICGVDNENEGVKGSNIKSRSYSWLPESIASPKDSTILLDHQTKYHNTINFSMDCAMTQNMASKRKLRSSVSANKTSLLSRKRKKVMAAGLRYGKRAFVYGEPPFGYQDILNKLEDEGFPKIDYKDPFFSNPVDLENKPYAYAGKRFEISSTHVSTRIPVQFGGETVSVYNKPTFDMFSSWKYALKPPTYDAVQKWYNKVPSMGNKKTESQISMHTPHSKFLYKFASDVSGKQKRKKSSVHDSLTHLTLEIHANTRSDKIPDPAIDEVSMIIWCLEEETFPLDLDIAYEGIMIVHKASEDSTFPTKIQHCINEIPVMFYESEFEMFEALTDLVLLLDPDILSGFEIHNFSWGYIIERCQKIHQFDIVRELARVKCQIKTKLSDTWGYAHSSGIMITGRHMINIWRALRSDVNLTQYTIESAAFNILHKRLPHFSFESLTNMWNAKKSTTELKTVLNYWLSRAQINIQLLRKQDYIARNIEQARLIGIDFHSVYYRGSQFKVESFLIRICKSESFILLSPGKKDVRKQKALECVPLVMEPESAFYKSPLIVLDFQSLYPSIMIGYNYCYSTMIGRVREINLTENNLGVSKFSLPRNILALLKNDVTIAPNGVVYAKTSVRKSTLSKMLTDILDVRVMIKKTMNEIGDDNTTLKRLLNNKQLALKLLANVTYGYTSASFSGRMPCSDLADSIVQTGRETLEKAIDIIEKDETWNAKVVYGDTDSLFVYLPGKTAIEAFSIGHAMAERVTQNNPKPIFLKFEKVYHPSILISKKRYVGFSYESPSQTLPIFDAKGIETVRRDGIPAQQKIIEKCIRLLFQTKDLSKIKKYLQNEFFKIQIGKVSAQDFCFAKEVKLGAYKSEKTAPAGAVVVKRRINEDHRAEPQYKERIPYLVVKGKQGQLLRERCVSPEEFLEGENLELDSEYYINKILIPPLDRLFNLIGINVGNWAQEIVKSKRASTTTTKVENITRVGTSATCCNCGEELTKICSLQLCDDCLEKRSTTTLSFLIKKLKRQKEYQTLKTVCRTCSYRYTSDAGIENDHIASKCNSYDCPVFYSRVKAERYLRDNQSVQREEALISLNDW

“Pol32 with an N-terminal His7 tag (from UniProt P47110 1-350) (natural protein)” gave a stoichiometry of the complex after Ni-chelate chromatography (percent) of 100%.

Source: publication PMC3526297
